Target: T1, extracellular domain of mouse PIR-B (Domains 1 to 6), biotinylated (mouse, UniProt P97484 25-642, biotinylated with BirA (site not stated))
T1 construct: The full-length protein is cited as NCBI NM_011095; also called Paired-Immunoglobulin-like Receptor B; PIR-B (extracellular domain)
T1 sequence: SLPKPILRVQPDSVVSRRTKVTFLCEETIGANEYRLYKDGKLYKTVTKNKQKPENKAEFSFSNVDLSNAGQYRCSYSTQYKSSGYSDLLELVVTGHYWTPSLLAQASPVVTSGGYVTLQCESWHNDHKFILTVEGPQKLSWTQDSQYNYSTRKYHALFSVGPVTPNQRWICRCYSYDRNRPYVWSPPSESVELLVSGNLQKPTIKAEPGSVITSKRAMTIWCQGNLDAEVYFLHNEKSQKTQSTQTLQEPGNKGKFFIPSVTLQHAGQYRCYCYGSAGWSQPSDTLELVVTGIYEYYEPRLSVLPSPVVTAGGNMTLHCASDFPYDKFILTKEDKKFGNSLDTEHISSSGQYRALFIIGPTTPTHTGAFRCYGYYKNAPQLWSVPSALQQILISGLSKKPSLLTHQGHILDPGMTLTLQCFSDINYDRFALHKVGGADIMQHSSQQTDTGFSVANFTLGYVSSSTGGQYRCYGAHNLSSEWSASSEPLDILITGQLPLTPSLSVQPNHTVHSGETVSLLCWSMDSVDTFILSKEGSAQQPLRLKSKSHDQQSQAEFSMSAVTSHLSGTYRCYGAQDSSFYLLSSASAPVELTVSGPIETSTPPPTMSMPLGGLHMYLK
Experiment: SPR (BIAcore 3000), biotinylated PIR-B extracellular domain on streptavidin chip, HLA-G2 0.10-1.56 µM as analyte, 1:1 binding model
Description: Using BIAcore® 3000 (GE healthcare BIAcore), the affinity between HLA-G2 and the extracellular domain of PIR-B prepared as described above was determined in a surface plasmon resonance experiment. Streptavidin was first covalently fixed on a research grade sensor chip, and then the biotinylated extracellular domain of PIR-B or BSA as a negative control was fixed via the streptavidin. Then, a solution of HLA-G [α1-3] dimer in HBS-EP running buffer (10 mM HEPES pH7.5, 150 mM sodium chloride, 3.4 mM EDTA, 0.005% Surfactant P20) was run at 5 μL/min. Kinetics analysis of binding response was performed at various concentrations by subtracting the response measured in a control flow cell from the response measured in a sample flow cell. BIAevaluation version 4.1.1 (GE Healthcare) was used in the analysis.

Kd: 142 nM
B1: HLA-G2 (HLA-G [α1-3] dimer; complex of the α1 and α3 domains of the HLA-G molecule) (ligand)
chain: GSHSMRYFSAAVSRPGRGEPRFIAMGYVDDTQFVRFDSDSACPRMEPRAPWVEQEGPEYWEEETRNTKAHAQTDRMNLQTLRGYYNQSEANPPKTHVTHHPVFDYEATLRCWALGFYPAEIILTWQRDGEDQTQDVELVETRPAGDGTFQKWAAVVVPSGEEQRYTCHVQHEGLPEPLMLRW
notes: It was run in SPR as 'HLA-G [α1-3] dimer'; also called α1-3 complex

Reference: patent US20210115137A1 (NATIONAL UNIVERSITY CORPORATION HOKKAIDO UNIVERSITY, published 2021)
